Measurements published in US10822379 (UNIVERSITY OF PITTSBURGH OF THE COMMONWEALTH SYSTEM OF …, dated 2020).

B1: Clone #2 (ab2) (Fab, V domains shown)
VH: QVQLQQSGPGLVKPSQTLSLTCAISGDSVSSNSAAWNWIRQSPSRGLEWLGRTYYRSKWYNDYAVSVKSRITINPDTSKNQFSLQLNSVTPEDTAVYYCAREQQQLVPHYYYYGMDVWGQGTTVTVSS
VL: DVVMTQSPSVSGSPGQSVTISCTGTTSDVGGYNYVSWYQQRPGKAPKLMIYEVSKRPSGVPDRFSGSKSGNTASLTVSGLQAEDEADYYCSSYTSSSTLFGTGTKLTVLG
notes: also called #2 (Fab)
B2: Clone #4 (ab4) (scFv)
scFv: EVQLVQSGGGLVQPGGSLRLSCAASGFTFSNYAMTWVRQAPGKGLEWVSTIAGSGDNTYYADSVKGRFTISRDNDKNTLYLQMNSLRADDTAVYYCARDRYYTMDVWGQGTLVTVSSGGGGSGGSGSSGGGSQSVVTQPPSASGSPGQSVTISCTGTSSDVGGYNHVSWYQQHPGKAPKLLIYEVSERPSGVPDRFSGSKSDNKASLTIIGLQTEDEADYYCQSYDSSLSGSLFGTGTKLTVLR
notes: also called #4 (scFv)
B3: Clone #1 (ab1) (Fab, V domains shown)
VH: EVQLVESGGGLVQPGGSLRLSCAASGFTVSSNYMSWVRQAPGKGLEWVSVIYSGGSTYYADSVKGRFTISRHNSKNTLYLQMNSLRAEDTAVYYCARGYGDYYFDYWGQGTLVTVSS
VL: DVVMTQSPATLSLSPGEKATLSCRASQSVSSYLAWYQQKPGQPPKLLIYWASTRESGVPDRFSGSGSGTDFTLTISSLQAEDVAVYYCQQYGSSPLTFGGGTKVEIKR
notes: also called #1 (Fab)
B4: Clone #7 (ab7) (other)
VH: EVQLVESGGGLVQPGGSLRLSCAASAFDFYDYEMSWVRQAPGKALEWIGEIHHSGSTYYNPSLKGRFTISRDNSKNTLYLQMNSLRAEDTAVYYCAKDVSYHADVWGQGTTVTVSS
notes: also called #7 (VH domain)
B5: Clone #9 (ab9) (other)
VH: EVQLVESGGGLVQPGGSLRLSCKGSGFTLSDYYIGWVRQAPGKGLEWIGSMYHSGRTYINPSLKSRVTISRDNSKNTLYLQMNSLRAEDTAVYYCARGGITGTTPIDYWGQGTLVTVSS
notes: also called #9 (VH domain)
B6: Clone #6 (ab6) (other)
VH: EVQLVESGGGVVQPGRSLRLSCAASGFTFSSYAMHWVRQAPGKGLEWIGNIYHDGSTFYNPSLKSLVTISRDDSTNTLYLQMNSLRAEDTAIYYCARVWLYGSGYMDVWGKGTLVTVSS
notes: also called #6 (VH domain)
B7: Clone #5 (ab5) (other)
VH: KVQLQQWGAGLLKPSETLSLTCAVYGGSFSGYYWSWIRQPPGKGLEWIGEINHSGSTNYNPSLKSRVTISVDTSKNQFSLKLSSVTAADTAVYYCVRLPMIKKSFDIWGPGTLVTVSS
notes: also called #5 (VH domain)
B8: Clone #8 (ab8) (other)
VH: EVQLVESGGGLVQPGGSLRLSCAASGFTFDDYAMSWVRQAPGKGLEWIGRMYNNGRTSYNPSLKSLVTISRDNSKNTLYLQMNSLRAEDTATYYCARDNLGYRPSENLYGMDVWGQGTTVTVSS
notes: also called #8 (VH domain)

Target: RBD of the S protein of SARS-CoV-2 (SARS-CoV-2, UniProt P0DTC2 330-532)
Experiment: ELISA on SARS-CoV-2 RBD

Binder	EC50 [nM]
B1	2
B2	10
B3	20
B4	4
B5	60
B6	6
B7	20
B8	25
